Experimental findings from paper PMC3826667, “S100A9 protein is a novel ligand for the CD85j receptor and its interaction is implicated in the control of HIV-1 replication by NK cells” (Retrovirology, 2013) are described below.

This experiment deals with T1, recombinant CD85j-Fc fusion protein (human, UniProt Q8NHL6 24-461).
T1 construct: CD85j (LILRB1, ILT2, LIR-1), human; also called CD85j fusion protein; LILRB1; source: bought: R&D System
The experiment can be described thus: ELISA; anti-GST mAb-coated wells, 4 ug/mL GST-tagged S100A8 or S100A9 captured, increasing amounts of CD85j-Fc, 2 h at 37°C; detected with HRP anti-human-Fc. To be noted: both partners purified. (In general: An ELISA detects its analyte on a solid surface through an enzyme-linked reagent.)

T1 sequence (Q8NHL6 24-461): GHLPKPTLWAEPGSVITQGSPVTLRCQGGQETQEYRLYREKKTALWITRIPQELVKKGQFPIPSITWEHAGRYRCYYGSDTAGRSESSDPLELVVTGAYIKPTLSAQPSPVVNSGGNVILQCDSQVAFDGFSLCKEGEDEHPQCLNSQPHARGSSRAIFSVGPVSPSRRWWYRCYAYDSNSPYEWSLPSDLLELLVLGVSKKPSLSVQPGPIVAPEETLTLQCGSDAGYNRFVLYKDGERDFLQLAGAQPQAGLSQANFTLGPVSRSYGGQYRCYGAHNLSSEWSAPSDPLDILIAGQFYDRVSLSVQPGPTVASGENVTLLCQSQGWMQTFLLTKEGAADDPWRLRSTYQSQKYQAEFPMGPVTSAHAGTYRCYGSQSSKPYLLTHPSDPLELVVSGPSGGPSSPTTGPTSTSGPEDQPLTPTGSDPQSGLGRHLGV

B1: full-length recombinant GST-tagged human S100A9 monomer (natural protein, UniProt P06702 1-114, looked up)
chain: MTCKMSQLERNIETIINTFHQYSVKLGHPDTLNQGEFKELVRKDLQNFLKKENKNEKVIEHIMEDLDTNADKQLSFEEFIMLMARLTWASHEKMHEGDEGPGHHHKPGLGEGTP
notes: S100A9, human, full-length recombinant, GST-tagged; source: bought: Tebu-bio
For B1, the binding result is “binds”.

B2: recombinant GST-tagged human S100A8 monomer protein (natural protein, UniProt P05109 1-93, looked up)
chain: MLTELEKALNSIIDVYHKYSLIKGNFHAVYRDDLKKLLETECPQYIRKKGADVWFKELDINTDGAVNFQEFLILVIKMGVAAHKKSHEESHKE
notes: S100A8, human, recombinant, GST-tagged; source: bought: Tebu-bio
On to B2, for which the binding result is given as “binds”.
